Data from US20160362456.
Where a chain is given by its changes, count along the chain named.

Experiments:
Assay in all cases: EMSA
Conditions in all cases: derived from FIG. 2D
[1] = molecular target: T1, XylR wild-type (Escherichia coli) (UniProt P0ACI3)
T1 sequence: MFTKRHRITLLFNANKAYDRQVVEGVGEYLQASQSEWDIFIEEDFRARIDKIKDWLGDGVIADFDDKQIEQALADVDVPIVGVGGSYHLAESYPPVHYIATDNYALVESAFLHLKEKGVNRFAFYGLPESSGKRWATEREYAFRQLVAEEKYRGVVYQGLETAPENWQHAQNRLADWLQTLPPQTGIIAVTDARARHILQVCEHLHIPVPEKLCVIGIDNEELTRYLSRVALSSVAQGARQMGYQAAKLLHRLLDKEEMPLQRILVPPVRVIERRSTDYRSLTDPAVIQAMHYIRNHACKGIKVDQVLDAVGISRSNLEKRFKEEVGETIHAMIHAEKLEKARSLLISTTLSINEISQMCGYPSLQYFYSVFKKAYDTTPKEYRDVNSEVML

[2] = molecular target: T2, XylR R121C R121C (Escherichia coli) (UniProt P0ACI3)
T2 sequence: T1 sequence with R121C

[3] = molecular target: T3, XylR P363S P363S (Escherichia coli) (UniProt P0ACI3)
T3 sequence: T1 sequence with P363S

XylR binding site IF was tested, and the Kd [1] was 19.6 nM, the Kd [2] was 4 nM and the Kd ([3]; value as printed) was 27 nM.
XylR binding site IA showed a Kd [1] of 38.5 nM, a Kd [2] of 2.7 nM and a Kd [3] of 12.4 nM.
